Test results: article PMC6641633 (ACS Omega, 2018)
Changes are numbered by the printed parent chain. In names and notes the source's numbering stands.

B1: truncated hepatitis B virus capsid protein Cp149, wild type (domain or fragment, UniProt P03146 1-149, looked up)
chain: MDIDPYKEFGATVELLSFLPSDFFPSVRDLLDTASALYREALESPEHCSPHHTALRQAILCWGELMTLATWVGVNLEDPASRDLVVSYVNTNMGLKFRQLLWFHISCLTFGRETVIEYLVSFGVWIRTPPAYRPPNAPILSTLPETTVV
B2: Cp149-D2N/D4N mutant of the truncated hepatitis B virus capsid protein (domain or fragment, UniProt P03146 1-149, looked up)
chain: B1 chain with D2N, D4N

Molecular target: the molecule itself
Assay: dynamic light scattering

Protein | stoichiometry N
B1 | 2
B2 | 2
